Assays:
[1] = Protein melting point by DSC; format: physicochemical
Description: Differential scanning calorimetry study of SP1 indicates in a Tm of 107° C. for SP1. […] Further, folding and refolding of inclusion bodies including insoluble SP1, and the heat stability of the unfolded proteins indicate that the intact monomer, as well as the oligomer, is heat resistant (FIG. 5).

[2] = Repetitive iv injections of SP1: toxicity, liver histopathology; format: in vivo
Description: 35 mg/Kg SP1 or PBS control were injected iv (tail vein) to C57B1 mail mice on days 0, 9, 16, 23, 37 and 53 (6 and 5 animals in the SP1 and PBS groups, respectively). 55 days past the first injection the animals were sacrificed and their livers were subjected to histopathology analysis.

[3] = system: Human colon adenocarcinoma (HT-29) cells; experiment: In-vitro cytotoxicity in HT-29 cells; format: cell-based; conditions: HT-29 cells, dose inhibiting 50% of cell growth
Description: FIGS. 24a and 24b are graphs illustrating the in-vitro cytotoxic effects of SP1-DOX complex. FIG. 24a—HT-29 cells cultured in 96 well microtiter plates were exposed to uncomplexed DOX (closed oval, magenta) or SP1-DOX complex (closed triangle, blue) prepared as described in FIGS. 9-15, at the indicated concentrations. FIG. 24b—HT-29 cells were exposed to uncomplexed SP1 (without DOX) (closed diamond, blue) or SP1-DOX complex (closed triangle, yellow) at indicated concentrations. Proportion of living cells was determined by MTT assay, and the IC50 was calculated.
HT-29 cells were prepared as in FIG. 24 above.
Human colon adenocarcinoma (HT-29) cells. The cells were grown in 50-ml flasks containing DMEM medium (Biological Industries, Bet Haemek), supplemented with 10% fetal calf serum, 1% glutamine and 1% Antibiotic-Antimicotic solution (Biolab, Israel). The cells were trypsinizated, and 2 ml medium containing 5×10^4 cells were plated in each well of a 6-wells plate. SP1, drugs or SP1-complexed with drugs was added at the indicated concentrations. The cells were incubated at 37° C. in a humidified atmosphere containing 5% CO2.After 48 hours the medium in the presence or absence of drugs was replaced in each well respectively, to maintain a constant supply of ingredients and drugs. After four days the medium was removed and the number of viable cells in the cultures was determined by spectroscopy.
The human colorectal adenocarcinoma cell line, HT-29, was used to evaluate the biological activity of the SP1-DOX complex, compared to that of the free drug and un-complexed SP1 protein. […] Thus, the SP1-DOX complex is at least as biologically active as free DOX.

[4] = Heat stability (no precipitation after heat treatment); conditions: 10 min at 100° C. or 30 min at 85° C.
[5] = Immunogenicity: anti SP1 antibody production by ELISA; format: in vivo, C57B1 mice; conditions: after repetitive injections
Description: In order to determine the degree of immunogenicity of SP1, anti SP1 antibody production in both PBS- and SP1-treated animals was detected using ELISA, using either directly immobilized SP1 or rabbit anti SP1 antibodies (second antibody was HRP conjugated anti mouse IgG). Serum obtained from both PBS- and SP1-treated animals had negligible anti-SP1 antibody reaction, with no difference between the two groups.

[6] = Resistance of SP1 complex to organic solvents; format: physicochemical
Description: 150 ul of 1 mg/ml samples in 10 mM sodium phosphate pH 7 were lyophilized overnight and resuspended in 150 μl organic solvents for 10 minutes. Following a 30 minutes speed vac the samples were resuspended in 150 μl water and analyzed by SDS-PAGE.
In order to further test the stability of SP1 and SP1 oligomeric complexes, wild type SP1 and the SP1 variant Cys2 SP1 were dissolved in buffer, exposed to organic solvents methanol and hexane, and analyzed by SDS-PAGE (FIG. 18).
In order to determine the stability of the SP1 complex in organic solvents, SP1 and Cys2 SP1-variant (SEQ ID NO: 3) were dissolved in organic solvents, dried, reconstituted with aqueous solvent, and separated on SDS-PAGE.

Which results are given for “wild type: stress related SP1 protein from aspen (Populus tremula), recombinant, SEQ ID NO:1”?
Tm ([1]; Differential scanning calorimetry): 107 °C; Tm ([1]; protein melting point by DSC, in °C (unit assumed)): 107; animals without any pathological response ([2]; 35 mg/Kg iv on days 0, 9, 16, 23, 37 and 53, up to 55 days): Four out of six; liver histopathology ([2]; 55 days past the first injection): appeared normal; animals died ([2]; after 17 days, unknown reason): Two out of 6; IC50 ([3]; listed as SP1): inactive; IC50 ([3]; listed as SP-1): absence of cytotoxicity; Heat stability [4]: +; anti-SP1 antibody reaction in serum [5]: negligible; protease resistance after hexane treatment ([6]; hexane-treated, data not shown): resistance to protease treatment; resistance of oligomeric complex to organic solvents ([6]; methanol, hexane, SDS-PAGE): Predominantly high molecular weight oligomer complex form
